Source: patent US10479836B2, “Method for treating pulmonary hypertension with interleukin-5 receptor antibody” (University of Toyama, priority 2015, dated 2019)
Entries after “also recorded” stand apart in the source; their conditions may differ.

B1: H7-2: core fucose-deficient H7 chimeric antibody, human IgG1, with Cys at VL position 87 replaced with Ser (antibody, V domains shown)
VH: EVQLQQSGAELGKPGTSVKLSCKVSGYNIKNTYIHWVNQRPGKGLEWIGRIDPANGNPIYAEKFKNKATLTADTSSNTAYMQLSQLKSDDTAIYFCAMHRGHSMGPGPYVMDAWGQGASVTVSS
VL: DIQMTQSPASLSASLGETVTIECRTSEDIYNGLAWYQQKPGKSPQLLIYNANSLHTGVPSRFSGSGSGTQYSLKINSLQSEDVASYSCQQYSNYPFTFGSGTKLEIK
B2: H7-4: N-linked sugar chain-deficient H7 chimeric antibody, human IgG1 (N297A), with Cys at VL position 87 replaced with Ser (antibody, V domains shown)
VH: B1 VH
VL: B1 VL
B3: KM8808: core fucose-deficient anti-dinitrophenol (DNP) rat/human chimeric antibody, isotype control (antibody, V domains shown)
VH: EVQLQESGPGLVKPSQSLSLTCSVTGYSITSGYWNWIRKFPGNKMEWIGYISYSGSTYYNPSLKSRISITRDTSKNQFFLQLNSVTTEDTATYYCARWGVRHYFDYWGQGVMATVSS
VL: DVVMTQTPVSLPVSLGGQASISCRSSQSLANSYGNTYLSWYLQKPGQSPQLLIYRVSNTFSGVPDRFSGSGSGTDFTLKISRVEPEDLGDYYCLQGTHQPYTFGAGTKLELK
B4: KM6161: N-linked sugar chain-deficient anti-DNP rat/human chimeric antibody containing N297A substitution, isotype control (antibody, V domains shown)
VH: B3 VH
VL: B3 VL

Each molecule was assayed on mouse IL-5Rα-expressing cell Y16 (assay: Antigen binding activity of chimeric antibodies on Y16 cells by FCM). Conditions: FIG. 12.
Assay type: cell-based
Experimental: The chimeric antibodies prepared in Example 8 were evaluated for their antigen binding activity using a mouse-derived cell line Y16 expressing IL-5R. The Y16 cells were washed with SM (staining medium containing 2% FCS, 0.05% NaN3, and 1 mM EDTA in PBS). Then, Mouse BD Fc Block (manufactured by Becton, Dickinson and Company) was added thereto at a concentration of 5 μg/mL, and the mixture was left standing at 4° C. for 30 min. The cells were inoculated at a cell number of 1×10^5 cells/well to a 96-well U-bottom plate, and each chimeric antibody adjusted to a final concentration of 10000, 2500, 625, 156, 39, 10, 2.4, or 0.6 ng/mL was added thereto, followed by reaction at 4° C. for 60 min. The rat/human chimeric control antibodies used were rtDNP-1 hIgG1 (DF) antibody (KM8808) and rtDNP-1 hIgG1 (N297A) antibody (KM6161). The nucleotide sequences and amino acid sequences of the variable regions of each isotype control antibody are shown in SEQ ID NOs: 29 to 34. After washing of the cells with SM, Goat F(ab′)2 Anti-Human IgG PE (γ chain specific) (manufactured by Southern Biotech) diluted 500-fold with SM was added thereto, followed by reaction at 4° C. for 60 min. After washing of the cells with SM, the cells were resuspended in 50 μL of SM. Fluorescence intensity was measured by FCM (flow cytometer FACS Canto II (manufactured by Becton, Dickinson and Company)). The data was analyzed using FlowJo 7.65 (manufactured by Tomy Digital Biology Co., Ltd.) to calculate a Geomean value at each concentration.
B1 was tested, and the “binding ability to Y16 cells, H7-1 and H7-2 compared” value was “slight rise in binding ability”.

What follows are molecules tested on eosinophils (CD45-positive, Gr1-negative, Siglec-F-positive cells) (assay: IL-33-induced increase of lung eosinophils, FCM of lung cell suspension). Conditions: IL-5+/+ mice, 100 μg antibody i.p. five times; FCM day 21; FIG. 16.
Assay type: in vivo, mouse
Experimental: (§1) In an experimental system similar to that of Example 3, in order to confirm the inhibitory effects of anti-IL-5R antibodies and anti-IL-5 neutralizing antibodies on vascular wall thickening, 100 μg of the H7 (CS) hIgG1 (DF) (H7-2) antibody, the H7 (CS) hIgG1 (N297A) (H7-4) antibody, an anti-IL-5 antibody (ligand-neutralizing antibody, clone name: TRFK5), the anti-DNP antibody KM8808, the anti-DNP antibody KM6161, or rat IgG (clone name: HRPN) was intraperitoneally administered to each IL-5^+/+ mouse a total of five times (3 consecutive days (three times) from two days before the first rIL-33 administration day (day 0), once on the second rIL-33 administration day (day 7), and once on the third rIL-33 administration day (day 14)) (FIG. 15). Then, on day 21, lung tissues were resected and evaluated by FCM and immunofluorescent staining.
In the FCM, 1×10^6 cells in the lung cell suspension were stained with a PE-Cy7-conjugated anti-CD45 antibody (30-F11), an APC-conjugated anti-Gr1 antibody (RB6-8C5), and a PE-conjugated anti-Siglec-F antibody (E50-2440) (all manufactured by BD Biosciences). CD45-positive, Gr1-negative, and Siglec-F-positive cells were regarded as eosinophils, and the influence of antibody administration was observed.
For B1, the “inhibition of IL-33-induced increase in the number of eosinophils” value (from here on “inhibition of IL-33-induced increase”) was “inhibited almost completely; also recorded: superior in eosinophil growth-inhibiting function”.
For B2, the “inhibition of IL-33-induced increase” value was “at a degree poorer than that of H7-2”.
With B3 the “inhibition of IL-33-induced increase” value was “not inhibited”.
B4 was tested, and the “inhibition of IL-33-induced increase” value was “not inhibited”.

Same assay, conditions: IL-5+/+ mice, PBS instead of IL-33; 100 μg antibody i.p. five times; lung cells day 21, FCM
B1 was tested, and the “abundance ratio of eosinophils, in absence of IL-33 (PBS)” value (“abundance ratio of eosinophils … (PBS)” for short) was 0.24%.
With B2 the “abundance ratio of eosinophils … (PBS)” value was 0.17%.
B3 was tested, and the “abundance ratio of eosinophils … (PBS)” value was 1.19%.
For B4, the “abundance ratio of eosinophils … (PBS)” value was 0.92%.

Same assay, conditions: IL-5+/+ mice, rIL-33 days 0, 7, 14; 100 μg antibody i.p. five times; lung cells day 21, FCM
In the case of B1, the “abundance ratio of eosinophils, in presence of IL-33” value is reported as 1.58%.
B2 was tested, and the “abundance ratio of eosinophils, in presence of IL-33” value was 29.1%.
In the case of B3, the “abundance ratio of eosinophils, in presence of IL-33” value is reported as 48.3%.
For B4, the “abundance ratio of eosinophils, in presence of IL-33” value was 52.4%.

Each molecule was assayed on Y16 cells (assay: IL-5 signal inhibition: rIL-5-dependent Y16 growth inhibition (WST-1)). Conditions: rIL-5 5 units/mL, 24 hours.
Assay type: cell-based, mouse
Experimental: Whether or not the various recombinant chimeric antibodies prepared in Example 8 would have the function of inhibiting IL-5 signals was studied by using Y16 growth inhibition as an index. 2×10^3 Y16 cells were cultured for 24 hours in the presence or absence of rIL-5 (5 units/mL) after addition of the Cys substitution-containing core fucose-unlinked H7 recombinant chimeric antibody H7 (CS) hIgG1 (DF) (H7-2), the N-linked sugar chain-deficient H7 recombinant chimeric antibody H7 (CS) hIgG1 (N297A) (H7-4), and the anti-DNP antibodies KM8808 and KM6161 at a concentration of 0.01, 0.1, 1, or 10 μg/mL. 24 hours later, these antibodies were evaluated for their ability to inhibit growth using Premix WST-1 Cell Proliferation Assay System (manufactured by Takara Bio Inc.). The culture time after addition of the reagent of the cell growth assay kit was set to 1 hour.
With B1 the “Y16 growth inhibiting ability, H7-2 and H7-4 compared” value was “equivalent inhibiting ability”.
B2 was tested, and the “Y16 growth inhibiting ability, H7-2 and H7-4 compared” value was “equivalent inhibiting ability”.

Same assay, conditions: rIL-5 5 units/mL, 24 hours, antibody 0.01-10 μg/mL; FIG. 14
With B1 the “inhibition of Y16 cell growth (IL-5 signal-inhibiting function)” value (“inhibition of Y16 cell growth” for short) was “inhibited the growth of the Y16 cells in an antibody concentration-dependent manner”.
With B2 the “inhibition of Y16 cell growth” value was “inhibited the growth of the Y16 cells in an antibody concentration-dependent manner”.
For B3, the “inhibition of Y16 cell growth” value was “not observed”.
For B4, the “inhibition of Y16 cell growth” value was “not observed”.

The molecules below were run on IL-33-induced vascular wall thickening (SMA-positive cells) (assay: IL-33-induced vascular wall thickening, immunofluorescent staining of lung tissue). Conditions: IL-5+/+ mice, 100 μg antibody i.p. five times; lung tissue day 21.
Assay type: in vivo, mouse
Experimental: as §1
In the immunofluorescent staining, the tissues were sliced into 30 μm, and slides were prepared and then stained with an Alexa 488-conjugated anti-SMA antibody (1A4) (manufactured by Abcam plc) and an Alexa 647-conjugated anti-Siglec-F antibody (E50-2440). The nuclei of the cells were stained with Hoechst 33342 (manufactured by Life Technologies Corp.). Here, the degree of the growth of SMA-positive cells (primary media-constituting cells) was observed.
B1 was tested, and the “inhibition of IL-33-induced vascular wall thickening (immunofluorescent staining)” value (shortened to “inhibition … (immunofluorescent staining)”) was “inhibited most strongly; also recorded: vascular wall thickening inhibitory effect superior to H7-4 or the IL-5 ligand-neutralizing antibody”.
B2 was tested, and the “inhibition … (immunofluorescent staining)” value was “at a degree poorer than that of H7-2”.
For B3, the “inhibition … (immunofluorescent staining)” value was “not observed”.
For B4, the “inhibition … (immunofluorescent staining)” value was “not observed”.

These molecules were tested on Y16 cells (assay: ADCC activity against Y16 cells with human PBMC effector cells (LDH release)). Conditions: 4 hrs, 0.0001-1000 ng/mL (control antibodies 1000 ng/mL), FIG. 13.
Assay type: cell-based, mouse
Experimental: The H7 recombinant chimeric antibodies prepared in Example 8 were evaluated for their ADCC activity against Y16 cells using frozen human peripheral blood mononuclear cells (PBMCs) (manufactured by AllCells) as effector cells. The frozen human PBMCs were shake-cultured (37° C., 5% CO2, overnight) in RPMI1640 medium containing 5% FBS. The Y16 cells (target cells) and the human PBMCs (effector cells) were washed with ADCC assay medium (RPIM1640 containing 5% dialyzed FBS) and adjusted to cell densities of 2×10^5 cells/mL and 3×10^6 cells/mL, respectively. The cells were washed twice with a medium and then suspended into cell densities of 4×10^5 cells/mL. Each chimeric antibody adjusted to a final concentration of 0.0001, 0.001, 0.01, 0.1, 1, 10, 100, or 1000 ng/mL, the target cells (2×10^4 cells/well), and the effector cells (5×10^5 cells/well) were added in this order at 50 μL/well to a 96-well U-bottom plate. The control antibodies used were the rtDNP-1 hIgG1 (DF) antibody (KM8808) and the rtDNP-1 hIgG1 (N297A) antibody (KM6161) of Example 10 adjusted to a final concentration of 1000 ng/mL. The plate was centrifuged (500 rpm, 5 min) and then left standing in an incubator (37° C., 5% CO2, 4 hrs). The plate was centrifuged (1500 rpm, 5 min) to recover a supernatant at 50 μL/well into a 96-well Flat-bottom plate (manufactured by Sumitomo Bakelite Co., Ltd.). Lactate dehydrogenase (LDH) activity in the supernatant was detected using CytoTox 96 Non-Radioactive Cytotoxicity Assay (manufactured by Promega Corp.). Absorbance at 490 nm was measured using a plate reader SPECTRA MAX 340 PC384 (manufactured by Molecular Devices, LLC). The ADCC activity (%) was calculated according to the following equation using background-corrected measurement values. Cytotoxicity=[[Absorbance of the sample]−[Absorbance derived from spontaneous release from the target cells and the effector cells]]/[[Absorbance derived from total release from the target cells]−[Absorbance derived from spontaneous release from the target cells]]
In the case of B1, the “ADCC activity against Y16 cells” value is reported as “exhibited antibody concentration-dependent ADCC activity”.
In the case of B2, the “ADCC activity against Y16 cells” value is reported as “none”.
B3 was tested, and the “ADCC activity against Y16 cells” value was “none”.
B4 was tested, and the “ADCC activity against Y16 cells” value was “none”.
